One block for each substance: values may come before it.
What was measured:
[1] = biological target: sun1_human SUN1 (UniProt O94901)
[2] = biological target: sun2_human SUN2 (UniProt Q9UH99)
[3] = biological target: sun2_human SUN2 (UniProt Q9UH99); remark: listed apart in the source
[4] = biological target: sun1_human SUN1 (UniProt O94901); remark: listed apart in the source
[5] = biological target: sun2_human SUN2 (UniProt Q9UH99); remark: listed apart in the source
[6] = biological target: sun2_human SUN2 (UniProt Q9UH99); remark: listed apart in the source
[7] = biological target: sun1_human SUN1 (UniProt O94901); remark: listed apart in the source

Chain of sun1_human SUN1 (O94901 whole entry): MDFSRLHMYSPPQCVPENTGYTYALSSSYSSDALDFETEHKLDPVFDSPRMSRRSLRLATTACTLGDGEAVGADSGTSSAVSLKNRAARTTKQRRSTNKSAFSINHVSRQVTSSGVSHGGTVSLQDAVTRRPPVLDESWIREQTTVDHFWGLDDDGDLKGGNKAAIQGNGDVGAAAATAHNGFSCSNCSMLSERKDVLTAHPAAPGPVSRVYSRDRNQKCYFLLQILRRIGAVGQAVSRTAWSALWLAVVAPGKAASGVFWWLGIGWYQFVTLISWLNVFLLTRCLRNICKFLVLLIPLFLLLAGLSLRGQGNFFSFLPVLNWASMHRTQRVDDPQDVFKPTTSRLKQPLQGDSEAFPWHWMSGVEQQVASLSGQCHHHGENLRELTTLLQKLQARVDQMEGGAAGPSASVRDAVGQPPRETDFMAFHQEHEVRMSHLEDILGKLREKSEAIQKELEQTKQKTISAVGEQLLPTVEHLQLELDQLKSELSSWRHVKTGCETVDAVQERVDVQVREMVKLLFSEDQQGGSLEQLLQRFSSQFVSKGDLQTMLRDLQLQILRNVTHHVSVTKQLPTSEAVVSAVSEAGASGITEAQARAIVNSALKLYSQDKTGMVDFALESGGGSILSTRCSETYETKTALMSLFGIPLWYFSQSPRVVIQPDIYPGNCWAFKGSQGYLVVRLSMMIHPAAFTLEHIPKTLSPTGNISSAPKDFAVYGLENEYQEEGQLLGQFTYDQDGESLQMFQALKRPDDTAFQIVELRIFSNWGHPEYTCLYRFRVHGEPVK
Chain of sun2_human SUN2 (Q9UH99 whole entry): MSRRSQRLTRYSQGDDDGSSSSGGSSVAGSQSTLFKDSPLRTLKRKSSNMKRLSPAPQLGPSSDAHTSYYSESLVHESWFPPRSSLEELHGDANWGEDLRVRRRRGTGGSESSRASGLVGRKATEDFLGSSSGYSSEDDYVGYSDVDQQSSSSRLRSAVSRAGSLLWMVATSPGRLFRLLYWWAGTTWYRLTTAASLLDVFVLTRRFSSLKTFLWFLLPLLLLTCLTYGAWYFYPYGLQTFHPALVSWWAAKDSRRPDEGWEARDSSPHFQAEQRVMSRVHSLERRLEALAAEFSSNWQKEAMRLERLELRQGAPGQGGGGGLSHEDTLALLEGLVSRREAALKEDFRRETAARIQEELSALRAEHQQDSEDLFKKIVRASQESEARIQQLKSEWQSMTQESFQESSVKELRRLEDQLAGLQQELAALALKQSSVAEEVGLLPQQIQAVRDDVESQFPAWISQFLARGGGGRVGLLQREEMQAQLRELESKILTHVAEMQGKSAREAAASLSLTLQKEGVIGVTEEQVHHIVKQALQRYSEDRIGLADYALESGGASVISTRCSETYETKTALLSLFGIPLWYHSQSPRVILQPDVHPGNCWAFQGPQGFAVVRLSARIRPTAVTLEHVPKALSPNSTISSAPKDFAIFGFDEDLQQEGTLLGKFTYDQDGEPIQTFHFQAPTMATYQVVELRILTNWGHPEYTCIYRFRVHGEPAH

Substance: Nesprin-1 (Homo sapiens), Q8NF91-1 C8774S
- effect of a mutation on the interaction [1]: disrupting interaction
- effect of a mutation on the interaction [2]: disrupting interaction strength
- effect of a mutation on the interaction [3]: decreasing interaction strength
- effect of a mutation on the interaction [4]: disrupting interaction strength

Substance: Nesprin-2 (Homo sapiens), Q8WXH0 Y6878A
- effect of a mutation on the interaction [5]: disrupting interaction strength

Substance: Nesprin-2 (Homo sapiens), Q8WXH0-1 C6862S
- effect of a mutation on the interaction [6]: disrupting interaction strength
- effect of a mutation on the interaction [7]: disrupting interaction strength

Next, values leading:

- effect of a mutation on the interaction [5]: disrupting interaction strength
Substance: Nesprin-2 (Homo sapiens), Q8WXH0 L6876A

- effect of a mutation on the interaction [5]: disrupting interaction strength
Substance: Nesprin-2 (Homo sapiens), Q8WXH0 P6883A
